Reference: paper PMC10140047

Legend:
[1] = biological target: RanBP2/NUP358 BICD2 Binding Domain (BBD), 2147-2287 (UniProt P49792); test: GST pull-down with purified proteins; conditions: reference: wild type; sites S102
[2] = biological target: PLK1 PBD, 354-603 (Methods: 345-603) (UniProt P53350); test: GST-PBD pull-down from cell extracts; conditions: reference: wild type; sites T319,S320,T321
[3] = biological target: PLK1 (UniProt P53350); test: anti-GFP IP, PLK1 blot; conditions: reference: wild type, sites T319,S320,T321
[4] = biological target: dynein (cytoplasmic dynein-1, endogenous, detected by its intermediate chain DIC) (human (endogenous in HeLa)) (UniProt Q13409)
[5] = biological target: GST-RanBP2 BBD phosphorylated by CDK1/cyclin B (human) (UniProt P49792); test: pull-down; GST-RanBP2 BBD on GSH agarose beads, untreated or pre-phosphorylated by CDK1/cyclin B1, incubated 90 min at RT with purified TwinStrep-BICD2 in Binding Buffer (50 mM Tris pH 7.4, 125 mM NaCl, 5 mM EDTA, 0.1% NP40); blot with anti-BICD2
Chain of GST-RanBP2 BBD phosphorylated by CDK1/cyclin B (human) (P49792 2147-2287): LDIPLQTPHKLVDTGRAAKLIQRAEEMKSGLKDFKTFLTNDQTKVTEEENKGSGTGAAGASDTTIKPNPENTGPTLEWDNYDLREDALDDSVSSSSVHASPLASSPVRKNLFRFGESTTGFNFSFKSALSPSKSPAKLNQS

Chain of dynein (cytoplasmic dynein-1, endogenous, detected by its intermediate chain DIC) (human (endogenous in HeLa)) (Q13409 whole entry, looked up): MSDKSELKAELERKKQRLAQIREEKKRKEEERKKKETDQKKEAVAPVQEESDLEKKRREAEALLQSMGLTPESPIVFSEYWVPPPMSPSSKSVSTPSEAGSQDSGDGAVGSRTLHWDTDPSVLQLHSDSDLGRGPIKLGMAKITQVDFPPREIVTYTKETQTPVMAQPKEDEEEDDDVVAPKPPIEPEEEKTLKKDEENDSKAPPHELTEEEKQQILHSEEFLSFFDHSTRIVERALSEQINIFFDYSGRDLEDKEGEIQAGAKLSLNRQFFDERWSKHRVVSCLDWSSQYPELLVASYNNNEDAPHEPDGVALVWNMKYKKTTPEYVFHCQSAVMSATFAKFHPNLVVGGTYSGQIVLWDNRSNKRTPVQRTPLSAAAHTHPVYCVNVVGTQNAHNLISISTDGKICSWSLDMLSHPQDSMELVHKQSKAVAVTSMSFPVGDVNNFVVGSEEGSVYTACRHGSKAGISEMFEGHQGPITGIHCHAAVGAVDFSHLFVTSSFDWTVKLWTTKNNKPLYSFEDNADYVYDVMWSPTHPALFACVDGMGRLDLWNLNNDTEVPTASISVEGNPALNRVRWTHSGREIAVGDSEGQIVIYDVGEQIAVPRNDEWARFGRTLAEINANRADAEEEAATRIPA

**Q.** With “BICD2 (mouse, recombinant) (from UniProt Q921C5) S102D” as the substance, how does the fold change [1] read?
**A.** 12

**Q.** Which “binding against the reference” value [2] does the source give for “BICD2 (mouse, recombinant) (from UniProt Q921C5) T319A/S320A/T321A” here?
**A.** lost

**Q.** With “BICD2 (mouse, recombinant) (from UniProt Q921C5) T319A/S320A/T321A, exponentially growing cells” as the substance, how does the “binding against the reference” value ([3]; exponentially growing cells) read?
**A.** lost

**Q.** With “BICD2 (mouse, recombinant) (from UniProt Q921C5) T319A/S320A/T321A, mitotic cells” as the substance, how does the “binding against the reference” value ([3]; mitotic cells) read?
**A.** lost

**Q.** For “GFP-BICD2 S102A (from UniProt Q921C5 1-820) (natural protein)”, which percent of U2OS cells with clustered mitochondria, BICD2 form expressed as GFP-BICD2 S102A-MTD [4] is on record?
**A.** 43%

**Q.** How did the percent of U2OS cells with clustered mitochondria, BICD2 form expressed as GFP-BICD2 S102D-MTD [4] turn out when “GFP-BICD2 S102D (from UniProt Q921C5 1-820) (natural protein)” was run?
**A.** 61%

**Q.** With “GFP-BICD2 [1–575] (from UniProt Q921C5 1-575) (domain or fragment)” as the substance, how does the percent of U2OS cells with clustered mitochondria, BICD2 form expressed as GFP-BICD2 [1–575]-MTD [4] read?
**A.** 85%

**Q.** For “GFP-BICD2 wild type (from UniProt Q921C5 1-820) (natural protein)”, which percent of U2OS cells with clustered mitochondria, BICD2 form expressed as GFP-BICD2 WT-MTD [4] is on record?
**A.** 50%

**Q.** “TwinStrep-BICD2 S102D (from UniProt Q921C5 1-820) (natural protein)” was tested. Which fold binding against wild-type BICD2 on phosphorylated BBD [5] did it give?
**A.** 12 fold

**Q.** What about the fold binding against wild-type BICD2 on unmodified BBD [5] of the same substance?
**A.** 400 times
